B1: His6-TEV-LPL (N-terminally His6-tagged human lipoprotein lipase) (enzyme)
chain: ADQRRDFIDIESKFALRTPEDTAEDTCHLIPGVAESVATCHFNHSSKTFMVIHGWTVTGMYESWVPKLVAALYKREPDSNVIVVDWLSRAQEHYPVSAGYTKLVGQDVARFINWMEEEFNYPLDNVHLLGYSLGAHAAGIAGSLTNKKVNRITGLDPAGPNFEYAEAPSRLSPDDADFVDVLHTFTRGSPGRSIGIQKPVGHVDIYPNGGTFQPGCNIGEAIRVIAERGLGDVDQLVKCSHERSIHLFIDSLLNEENPSKAYRCSSKEAFEKGLCLSCRKNRCNNLGYEINKVRAKRSSKMYLKTRSQMPYKVFHYQVKIHFSGTESETHTNQAFEISLYGTVAESENIPFTLPEVSTNKTYSFLIYTEVDIGELLMLKLKWKSDSYFSWSDWWSSPGFAIQKIRVKAGETQKKVIFCSREKVSHLQKGKAPAVFVKCHDKSLNKKSG
notes: human lipoprotein lipase; also called His6-LPL; hLPL; not shown: His6, N-terminal, kept
B2: His6-LPL-HA-FLAG (enzyme, human)
chain: B1 chain
notes: human lipoprotein lipase; Used as the complex with biotinylated hGPIHBP1-Avi in the TR-FRET assay; also called His6-hLPL-HA-FLAG; source: HEK293T, co-transfected with GPIHBP1 and LMF1, complex purified (Ni-NTA, SEC); not shown: His6, N-terminal, kept; HA, C-terminal, kept; FLAG, C-terminal, kept
B3: ANGPTL3(17–460)-FLAG-His6-Avi (natural protein)
chain: SRIDQDNSSFDSLSPEPKSRFAMLDDVKILANGLLQLGHGLKDFVHKTKGQINDIFQKLNIFDQSFYDLSLQTSEIKEEEKELRRTTYKLQVKNEEVKNMSLELNSKLESLLEEKILLQQKVKYLEEQLTNLIQNQPETPEHPEVTSLKTFVEKQDNSIKDLLQTVEDQYKQLNQQHSQIKEIENQLRRTSIQEPTEISLSSKPRAPRTTPFLQLNEIRNVKHDGIPAECTTIYNRGEHTSGMYAIRPSNSQVFHVYCDVISGSPWTLIQHRIDGSQNFNETWENYKYGFGRLDGEFWLGLEKIYSIVKQSNYVLRIELEDWKDNKHYIEYSFYLGNHETNYTLHLVAITGNVPNAIPENKDLVFSTWDHKAKGHFNCPEGYSGGWWWHDECGENNLNGKYNKPRAKSKPERRRGLSWKSQNGRLYSIKSTKMLIHPTDSESFE
B4: ANGPTL4(26–406)-FLAG-His6-Avi (natural protein)
chain: QPGPVQSKSPRFASWDEMNVLAHGLLQLGQGLREHAERTRSQLSALERRLSACGSACQGTEGSTDLPLAPESRVDPEVLHSLQTQLKAQNSRIQQLFHKVAQQQRHLEKQHLRIQHLQSQFGLLDHKHLDHEVAKPARRKRLPEMAQPVDPAHNVSRLHRLPRDCQELFQVGERQSGLFEIQPQGSPPFLVNCKMTSDGGWTVIQRRHDGSVDFNRPWEAYKAGFGDPHGEFWLGLEKVHSITGDRNSRLAVQLRDWDGNAELLQFSVHLGGEDTAYSLQLTAPVAGQLGATTVPPSGLSVPFSTWDQDHDLRRDKNCAKSLSGGWWFGTCSHSNLNGQYFRSIPQQRQKLKKGIFWKTWRGRYYPLQATTMLIQPMAAEAAS
B5: Soluble GPIHBP1(21–151)-FLAG-His6-Avi (domain or fragment, human)
chain: QTQQEEEEEDEDHGPDDYDEEDEDEVEEEETNRLPGGRSRVLLRCYTCKSLPRDERCNLTQNCSHGQTCTTLIAHGNTESGLLTTHSTWCTDSCQPITKTVEGTQVTMTCCQSSLCNVPPWQSSRVQDPTG
modifications: biotin on the C-terminal AviTag (BirA) where immobilised or labelled with streptavidin-D2; nonbiotinylated as free competitor in TR-FRET
notes: human GPIHBP1, soluble fragment of residues 21–151; also called GPIHBP1-Avi; hGPIHBP1-Avi; source: HEK293T, transfected, purified (Ni-NTA); also co-expressed with LPL and LMF1 in HEK293T and purified as the complex (Ni-NTA, SEC); not shown: AviTag, C-terminal, kept
B6: Soluble GPIHBP1(21–151), untagged (domain or fragment, human)
chain: B5 chain
notes: human GPIHBP1, soluble fragment of residues 21–151 (part of the extracellular domain); also called untagged GPIHBP1

Assay [1] addresses B5. Kind of assay: ELISA; 10 nM LPL/GPIHBP1 complex or fusion, biotinylated at the C-terminal AviTag of GPIHBP1, incubated with ANGPTL4 (12-point 2-fold dilution from 100 nM), then applied to a streptavidin-coated MSD plate; LPL and ANGPTL4 detected with specific antibodies. The following applies: both partners purified.
The target in assay [2] is B5. The assay can be described thus: FRET or BRET; TR-FRET; 10 nM His6-hLPL-HA-FLAG/biotinylated hGPIHBP1-Avi complex challenged with 1–1000 nM nonbiotinylated ANGPTL4, ANGPTL3 or GPIHBP1, 1 h room temperature; 20 mM HEPES pH 7.4, 100 mM NaCl, 10% heat-inactivated FBS, 5 mM CaCl2; anti-HA-Tb and streptavidin-D2. As to conditions: both partners purified. (In general: BRET reads energy transfer from a luciferase to a nearby fluorophore.)

The target in assay [3] is T1, His6-LPL-HA-FLAG (human).
T1 chain: B1 chain
The assay can be described thus: FRET; dissociation of LPL(HA)-GPIHBP1(Avi) complex (10 nM).

For assay [4], the target named is B1. The assay can be described thus: cell-based or functional assay.
Assay [5] addresses T2, LPL (untagged human lipoprotein lipase) (human).
T2 chain: B1 chain
The assay can be described thus: cell-based or functional assay.

For assay [6], the target named is T1, His6-LPL-HA-FLAG. The assay can be described thus: FRET; competition: dissociation of LPL(HA)/GPIHBP1(Avi) complex.
The target in assay [7] is T3, LPL(28–475)-(G4S)4-hGPIHBP1(21–151)-FLAG-His6-Avi (human, biotin on the C-terminal AviTag (BirA) in ELISA and SPR).
T3 chain: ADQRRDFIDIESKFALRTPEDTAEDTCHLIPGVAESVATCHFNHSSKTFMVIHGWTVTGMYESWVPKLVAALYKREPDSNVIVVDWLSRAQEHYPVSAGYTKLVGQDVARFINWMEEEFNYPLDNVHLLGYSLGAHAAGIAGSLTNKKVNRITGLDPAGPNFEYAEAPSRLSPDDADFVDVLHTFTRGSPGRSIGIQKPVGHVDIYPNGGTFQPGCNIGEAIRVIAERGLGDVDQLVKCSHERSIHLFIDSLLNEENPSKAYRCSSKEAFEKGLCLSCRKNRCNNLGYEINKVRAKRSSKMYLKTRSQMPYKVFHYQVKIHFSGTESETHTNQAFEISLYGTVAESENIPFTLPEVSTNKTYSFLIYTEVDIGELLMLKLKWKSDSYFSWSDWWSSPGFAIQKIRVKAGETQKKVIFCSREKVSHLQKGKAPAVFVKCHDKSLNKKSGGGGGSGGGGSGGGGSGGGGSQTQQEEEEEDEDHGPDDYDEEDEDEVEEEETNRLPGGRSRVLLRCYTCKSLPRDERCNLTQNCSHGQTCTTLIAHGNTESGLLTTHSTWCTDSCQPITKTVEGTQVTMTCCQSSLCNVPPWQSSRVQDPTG
The assay can be described thus: cell-based or functional assay.

Assay [8] addresses B2. The assay can be described thus: FRET or BRET; TR-FRET; 10 nM His6-hLPL-HA-FLAG/biotinylated hGPIHBP1-Avi complex challenged with 1–1000 nM nonbiotinylated ANGPTL4, ANGPTL3 or GPIHBP1, 1 h room temperature; 20 mM HEPES pH 7.4, 100 mM NaCl, 10% heat-inactivated FBS, 5 mM CaCl2; anti-HA-Tb and streptavidin-D2. As to conditions: both partners purified.
The target of assay [9] is T1, His6-LPL-HA-FLAG. The assay can be described thus: FRET.
Assay [10] deals with B1. Kind of assay: SEC; His6-LPL, GPIHBP1 and LMF1 co-transfected 3:1:1 in HEK293T; complex captured from the medium by Ni-affinity, then Superdex 200 in 10 mM Tris pH 7.5, 300 mM NaCl; eluted at ~75 kDa. As to conditions: both partners purified.

What is called IC50 is the concentration needed to halve the response being measured. A low value points to greater potency in that assay. The term stoichiometry N denotes a count of units in the complex or per binding partner.

Consider B1, for which the binding result in assay [1] was “binds”.
In the case of B2, in assay [2], the binding result is on record as “binds”.
For the molecule B3, the half-inhibitory concentration (IC50) in assay [3] came out at 100 nM. In addition, the “IC50 of ANGPTL3-mediated inactivation of 10 nM coexpressed LPL/GPIHBP1 complex, hydrolysis of VLDL” value in assay [4] is 300 nM. For the same molecule, the “IC50 of ANGPTL3-mediated inactivation of 10 nM LPL alone, hydrolysis of VLDL” value in assay [5] worked out at 8 nM.
Take B4: the IC50 in [3] came to 10 nM. Also, in assay [6], the IC50 turned out to be 18 nM. Besides, in assay [7], the “IC50 of ANGPTL4-mediated inactivation of 10 nM fusion protein against that of LPL alone, hydrolysis of VLDL” value turned out to be 36 fold and the “IC50 of ANGPTL4-mediated inactivation of 10 nM fusion protein against that of the coexpressed LPL/GPIHBP1 complex, hydrolysis of VLDL” value was 6 fold. Moreover, in assay [4], the “IC50 of ANGPTL4-mediated inactivation of 10 nM coexpressed LPL/GPIHBP1 complex, hydrolysis of VLDL” value is 19 nM. In addition, in assay [5], the “IC50 of ANGPTL4-mediated inactivation of 10 nM LPL alone, hydrolysis of VLDL” value amounted to 3 nM.
For the molecule B5, in assay [8], the binding result is listed as “binds”. This molecule also came in with a 50% inhibitory concentration (IC50) in [9] of 15 nM.
B6: the “stoichiometry N” value in assay [10] came out at 1.

Values taken from PMC7062184, “A lipoprotein lipase–GPI-anchored high-density lipoprotein–binding protein 1 fusion lowers triglycerides in mice: Implications for managing familial chylomicronemia syndrome” (The Journal of Biological Chemistry, 2019).
